Data as given in patent publication US20030027358A1.

Biological target: MHC Class I heavy chains (HLA-A, B and C molecules) on CB23, HSB2, MP-1, Jurkat, primary T cells, primary B cells and primary NK cells
Assay: flow cytometry competition; W6/32 at 0, 2, 5 or 10 µg in 100 µL, competitor 5 µg P3G2/Fc

“W6/32 (ATCC HB-95), an antibody against MHC Class I heavy chains” gave an amount of W6/32 at which P3G2 binding was totally blocked of 5 µg.
